Results published in the supplement of paper PMC11865577.

Experiments:
Assay in all cases: pull-down binding Z-score (relative to library population); higher = stronger binding
TO-N3 (biotin conjugate) = settings: RNA library: Library-2
How it was run: (§1)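 To score binding, a beads-only signal was subtracted, barcoded replicate probes were averaged with the highest and lowest dropped, and the value was converted to a Z-score using the library mean and standard deviation. The input was 1 μg of Cy5- or Cy3-end-labelled RNA library, heat-folded in phosphate/NaCl/KCl buffer and mixed for 60 min at 25 °C with streptavidin beads carrying 100 pmol of biotin-conjugated small molecule. Bound RNA was eluted in hot SDS and hybridised to a DNA barcode microarray at 55.5 °C for 20 h.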

[1] = system: TO-N3-2 (biotin conjugate); settings: RNA library: Library-2
How it was run: as §1

[2] = system: TO-3-N3-2 (biotin conjugate); settings: RNA library: Library-2
How it was run: as §1

[3] = system: TO-3-N3 (biotin conjugate); settings: RNA library: Library-2
How it was run: as §1

[4] = system: G-clamp-N3 (biotin conjugate); settings: RNA library: Library-1 (pre-miRNA loops + repeats)
How it was run: as §1

Sequence | pull-down binding Z-score (TO-N3 (biotin conjugate)) | pull-down binding Z-score [1] | pull-down binding Z-score [2] | pull-down binding Z-score [3] | pull-down binding Z-score [4]
GGCGUGGACAACUUGCU [hsa-mir-3943] | 0.131 | 0.912 | -0.0337 | -0.271 | 0.951
CUGCUCUCCCUGGCAGCAAG [hsa-mir-7109] | 0.283 | 0.6 | -0.0188 | -0.207 | 1.5
CUGUGGUUUGCUGGCUGCCUCAG [hsa-mir-6736] | 0.467 | 0.776 | -0.353 | 0.2 | -0.566
UAUUGCAAAGAUUUUCAAUA [hsa-mir-3915] | -0.988 | -1.1 | -0.307 | -0.611 | -0.191
UGUGUGCUGAGAAAAUUCACACA [hsa-mir-5580] | -0.125 | -0.274 | 0.149 | 0.00215 | -0.421
GGCUCGUCUGUGUUGCCAAUCGACUC [hsa-mir-1307] | 0.973 | 0.866 | 0.232 | 0.723 | -0.468
GUGCUGGCAGUGGCCACGUAA [hsa-mir-4276] | 0.642 | 1.46 | 0.0605 | -0.0231 | 0.096
GUCCAUUAGGCUUUGUUAUGGAAACUUCUCCUGAUC [hsa-mir-635] | 0.6 | 0.875 | 0.607 | 0.517 | -0.608
UUGAUGUCAGAAUGAGGUGUACCAA [hsa-mir-4714] | -0.148 | -0.099 | 0.1 | -0.499 | 1.29
GCUUGCUGUACAUAACUCAAUAGCCGGAAGC [hsa-mir-129-2] | -0.0532 | 0.327 | -0.316 | -0.0763 | -0.369
CAGGAUUAGUGCUUAUGCUAAGAUGUCUUCACUG [hsa-mir-6773] | -0.75 | -0.301 | -0.269 | -0.824 | 0.887
UGCUAUUACUUGUAUUUAUUUGUAAUGCA [hsa-mir-548ab] | -1.33 | -1.59 | -0.88 | -0.524 | -0.547
CUAUCCUUCCCUUGGAAAAUGAUCUGAG [hsa-mir-4770] | -0.245 | -5.12e-05 | -0.189 | -0.188 | -0.925
CCAAAUUUCAUGCG [hsa-mir-4454] | 0.0342 | -0.0452 | -0.18 | -0.0597 | -1.72
CCUUCUCCUCUUUGCAGUGAUAAAGGAGG [hsa-mir-4460] | -0.61 | -0.549 | -0.351 | -0.304 | -0.412
UGGUGGUGAAUUCAUGAGUCGCCA [hsa-mir-3115] | -0.671 | -0.62 | -0.498 | -0.509 | 0.372
CGGUACCCACUGCUGAGGGUGGGGACCA [hsa-mir-3691] | 0.55 | 0.687 | -0.291 | 0.628 | -0.0994
GUAGAUUUUAUGUCAC [hsa-mir-892b] | -0.00927 | 0.0365 | -0.156 | -0.000191 | -0.748
CUGUUGAAAGAAAAG [hsa-mir-526a-2] | 1.01 | 0.598 | 0.511 | 0.496 | -0.371

Sequence | pull-down binding Z-score (TO-N3 (biotin conjugate)) | pull-down binding Z-score [1] | pull-down binding Z-score [2] | pull-down binding Z-score [3] | pull-down binding Z-score [4]
AGGGGACACGGGCAAAGACUUGGGGGUUCCUGGGACCCUCAGACGUGUGUCCUCU [hsa-mir-877] | 0.632 | 0.581 | 0.297 | 0.252 | 0.447
AUCCCUUAGAUGCUAAGAUGGGGAU [hsa-mir-145] | -0.513 | -0.75 | -0.237 | -0.278 | 1.18
UGGCUGUAGGGCAGCAGUCA [hsa-mir-8079] | 1.16 | 0.479 | 0.456 | 1.29 | 0.959
UCAGCACCUGAACGCCAAGGCUGG [hsa-mir-3150a] | -0.348 | 0.123 | -0.591 | -0.481 | 0.168
UGUUAGUGUUCAAGUCUACA [hsa-mir-4802] | -0.509 | -0.255 | -0.398 | -0.747 | 0.156
GAACUUUUACGGUGAACCAGGAGGUUC [hsa-mir-629] | -0.0515 | -0.0865 | -0.139 | 0.0537 | -0.428
GGGAACUGGUGAGUUGUACAUAGAAAUGCUUUCUAACUCC [hsa-mir-4499] | 0.112 | 0.548 | -0.00162 | -0.123 | 0.204
GCUUGCUGUUCCUCUCAACAGUAGUCAGGAAGC [hsa-mir-129-1] | -0.219 | -0.245 | -0.186 | -0.169 | -0.381
CCUCCCUAGGGGAUCCCAGGUAGG [hsa-mir-4688] | 0.0963 | -0.0612 | -0.168 | 0.295 | -0.606
CUUGAUUUAAUGUCAUACAAUUAAG [hsa-mir-124-2] | -0.928 | -0.734 | -0.157 | -0.687 | -0.895
ACUCCCAGAACUCAUUAAGUUGGUAGU [hsa-mir-1278] | -0.188 | -0.482 | -0.184 | -0.0721 | -0.174
UUGAGGAGAGCACCACAGUGGUCAUCACACAG [hsa-mir-622] | 0.871 | 1.19 | 0.109 | 0.0413 | -1.25
AUGUUCGCUUCAUUCAUCAUGAAUAA [hsa-mir-655] | 0.385 | -0.299 | 0.089 | 0.297 | -0.248
GUGAACAUUGCAU [hsa-mir-4301] | -0.356 | -0.237 | -0.219 | -0.353 | -0.223
UAGGUUGUUAUUUAAUCCAACU [hsa-mir-190a] | -0.267 | -0.661 | -0.00409 | -0.24 | -1
AUAGAACAUUGACAUCAACACUAG [hsa-mir-4278] | -0.204 | -0.508 | -0.0605 | -0.104 | -2.05
GUUACUGUGGGAACUGGAGGUAAC [hsa-mir-132] | 1.1 | 0.708 | 0.489 | 0.839 | 2.34
UUUUGCUGUUACUUUUAAUGGCAAAA [hsa-mir-548az] | -0.752 | -1.3 | -0.34 | -0.418 | -0.982
